This passage reports MFI results from patent publication US20040087537A1.

The target of test [1] is low affinity human Nerve Growth Factor receptor truncated in its intracytoplasmic domain (delta-LNGFR), product of the HN vector (human). In words: FACS on CEMss HN cells, control labeling.
The target in test [2] is delta-LNGFR/F12Nef fusion protein, product of the NF vector (human LNGFR (NH2 moiety) fused to HIV-1 F12Nef (COOH moiety)). In words: FACS on CEMss NF cells, control labeling.

low affinity human Nerve Growth Factor receptor truncated in its intracytoplasmic domain (delta-LNGFR), product of the HN vector (human), sequence (chain, as listed by the source mutant limits assumed): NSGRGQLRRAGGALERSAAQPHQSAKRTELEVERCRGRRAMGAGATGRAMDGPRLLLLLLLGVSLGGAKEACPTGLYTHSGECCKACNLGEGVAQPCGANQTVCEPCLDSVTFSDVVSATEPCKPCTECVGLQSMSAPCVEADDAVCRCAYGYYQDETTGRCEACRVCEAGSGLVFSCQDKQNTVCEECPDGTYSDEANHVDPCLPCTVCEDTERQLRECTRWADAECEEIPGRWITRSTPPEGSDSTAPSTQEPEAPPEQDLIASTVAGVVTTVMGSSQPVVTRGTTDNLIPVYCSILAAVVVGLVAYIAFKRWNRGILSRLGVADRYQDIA

Regarding “species and isotype matched IgG (antibody)”, the MFI in test [1] and in test [2] was 1 to 1.5 in each case.
